The results in this text go back to the supplement of paper PMC10567573.

B1: CDC25A (parent)
chain: KPIVPTDGKRVIVVFHCEFSSERG
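Note: lentivirally expressed fusions sorted by FACS into six bins by GFP to DsRed ratio, PSI derived from sequencing read proportions per bin multiplied by bin number.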

This series covers variants of B1. As to the kind of experiment: protein stability index of a GFP-peptide fusion (GPS, HEK-293T) (PSI 1-6); higher = more stable. As to conditions: c terminus: a fixed tail appended.
As to KPIVPTDGKRVIVVFSCEFSSERG [H16S], the protein stability index worked out at 3.2. With KPIVPTDGKRVIVVFYCEFSSERG [H16Y], the protein stability index is 3.43. With KPIVPTDGKRVIVVFLCEFSSERG [H16L], the protein stability index was 3.13. With KPIVPTDGKRVIVVFDCEFSSERG [H16D], the protein stability index amounted to 2.06. Next, KPIVPTDGKRVNVVFHCEFSSERG [I12N]: 2.99. Next, KPIVPTDGKRVTVVFHCEFSSERG [I12T]: 2; KPIVPTDGKRVVVVFHCEFSSERG [I12V]: 1.63; KPIVPTDGKRVRVVFHCEFSSERG [I12R]: 1.94. As to KPIVPTDGKRVAVVFHCEFSSERG [I12A], the protein stability index was determined as 2.11. To KPIVPTDGKRVFVVFHCEFSSERG [I12F] belongs 3.2; to KPIVPTDGKRVLVVFHCEFSSERG [I12L], 3.39. To KPIVPTDGKRVPVVFHCEFSSERG [I12P] belongs 3.39; to KPIVPTDGKRVQVVFHCEFSSERG [I12Q], 2. To KPIVPTDGKRVDVVFHCEFSSERG [I12D] belongs 3.47; to KPIVPTDGKRVKVVFHCEFSSERG [I12K], 3.13; to KPIVPTDGKRVCVVFHCEFSSERG [I12C], 2.1.

For the variant KPIVPTDGKRVHVVFHCEFSSERG [I12H], the protein stability index is 1.83. Take KPIVPTDGKRVEVVFHCEFSSERG [I12E]: the protein stability index came to 2.84.

For the variant KPIVPTDGKRVGVVFHCEFSSERG [I12G], the protein stability index was determined as 3.13. With KPIVPTDGKRVWVVFHCEFSSERG [I12W], the protein stability index amounted to 2.49. To KPIVPTDGKRVSVVFHCEFSSERG [I12S] belongs 1.82. Consider KPIVPTDGKRVMVVFHCEFSSERG [I12M], for which the protein stability index is 2.24. Turning to KPIVPTDGKRVIGVFHCEFSSERG [V13G], the protein stability index is 2.8.

As for KPIVPTDGKRVIQVFHCEFSSERG [V13Q], the protein stability index amounted to 3.24. Next, KPIVPTDGKRVIPVFHCEFSSERG [V13P]: 3.21; KPIVPTDGKRVINVFHCEFSSERG [V13N]: 3.57; KPIVPTDGKRVIFVFHCEFSSERG [V13F]: 2.33. Next, KPIVPTDGKRVIKVFHCEFSSERG [V13K]: 3.02; KPIVPTDGKRVIIVFHCEFSSERG [V13I]: 3.19.

Regarding KPIVPTDGKRVIYVFHCEFSSERG [V13Y], the protein stability index was found to be 2.31. As for KPIVPTDGKRVIRVFHCEFSSERG [V13R], the protein stability index stood at 2.91.

Consider KPIVPTDGKRVIMVFHCEFSSERG [V13M], for which the protein stability index worked out at 1.16.

Regarding KPIVPTDGKRVIHVFHCEFSSERG [V13H], the protein stability index stood at 2.08. On to KPIVPTDGKRVILVFHCEFSSERG [V13L], for which the protein stability index was 2.97. With KPIVPTDGKRVIEVFHCEFSSERG [V13E], the protein stability index is 3.43. Turning to KPIVPTDGKRVITVFHCEFSSERG [V13T], the protein stability index stood at 2.38. Consider KPIVPTDGKRVISVFHCEFSSERG [V13S], for which the protein stability index turned out to be 3.36. As to KPIVPTDGKRVIDVFHCEFSSERG [V13D], the protein stability index amounted to 3.69. KPIVPTDGKRVIAVFHCEFSSERG [V13A]: the protein stability index came out at 2.28.

For KPIVPTDGKRVICVFHCEFSSERG [V13C], the protein stability index is 1.79.

Turning to KPIVPTDGKRVIWVFHCEFSSERG [V13W], the protein stability index came out at 1.79. Next, KPIVPTDGKRVIVVFHPEFSSERG [C17P]: 2.64; KPIVPTDGKRVIVVFHDEFSSERG [C17D]: 2.77; KPIVPTDGKRVIVVFHIEFSSERG [C17I]: 2.68. To KPIVPTDGKRVIVVFHHEFSSERG [C17H] belongs 1.38.

For KPIVPTDGKRVIVVFHEEFSSERG [C17E], the protein stability index was determined as 2.57. In the case of KPIVPTDGKRVIVVFHKEFSSERG [C17K], the protein stability index turned out to be 2.33. Next, KPIVPTDGKRVIVVFHAEFSSERG [C17A]: 2.24. In the case of KPIVPTDGKRVIVVFHLEFSSERG [C17L], the protein stability index was determined as 2.12.

Consider KPIVPTDGKRVIVVFHQEFSSERG [C17Q], for which the protein stability index is 2.32. Take KPIVPTDGKRVIVVFHVEFSSERG [C17V]: the protein stability index amounted to 2.73. For the variant KPIVPTDGKRVIVVFHFEFSSERG [C17F], the protein stability index was 1.93. For the variant KPIVPTDGKRVIVVFHTEFSSERG [C17T], the protein stability index came to 1.86. In the case of KPIVPTDGKRVIVVFHWEFSSERG [C17W], the protein stability index was 2.91.

For KPIVPTDGKRVIVVFHNEFSSERG [C17N], the protein stability index turned out to be 2.52.

On to KPIVPTDGKRVIVVFHMEFSSERG [C17M], for which the protein stability index stood at 1.99. Regarding KPIVPTDGKRVIVVFHYEFSSERG [C17Y], the protein stability index was found to be 2.9. Turning to KPIVPTDGKRVIVVFHGEFSSERG [C17G], the protein stability index came to 1.98. Turning to KPIVPTDGKRVIVVFHREFSSERG [C17R], the protein stability index is 1.95. On to KPIVPTDGKRVIVVFHSEFSSERG [C17S], for which the protein stability index was found to be 1.85. For KPIVPTDGKRVIVVHHCEFSSERG [F15H], the protein stability index is 3.19. On to KPIVPTDGKRVIVVKHCEFSSERG [F15K], for which the protein stability index worked out at 3.79. Turning to KPIVPTDGKRVIVVLHCEFSSERG [F15L], the protein stability index was 3.28. Consider KPIVPTDGKRVIVVEHCEFSSERG [F15E], for which the protein stability index is 4.32. To KPIVPTDGKRVIVVAHCEFSSERG [F15A] belongs 2.47. To KPIVPTDGKRVIVVMHCEFSSERG [F15M] belongs 1.61; to KPIVPTDGKRVIVVTHCEFSSERG [F15T], 2.92; to KPIVPTDGKRVIVVGHCEFSSERG [F15G], 2.98. As to KPIVPTDGKRVIVVYHCEFSSERG [F15Y], the protein stability index stood at 1.72. Next, KPIVPTDGKRVIVVQHCEFSSERG [F15Q]: 3.78. For KPIVPTDGKRVIVVSHCEFSSERG [F15S], the protein stability index is 3.47. On to KPIVPTDGKRVIVVDHCEFSSERG [F15D], for which the protein stability index turned out to be 4.34. Next, KPIVPTDGKRVIVVPHCEFSSERG [F15P]: 4.14. For the variant KPIVPTDGKRVIVVIHCEFSSERG [F15I], the protein stability index came out at 2.73.

Regarding KPIVPTDGKRVIVVCHCEFSSERG [F15C], the protein stability index amounted to 1.68. As to KPIVPTDGKRVIVVWHCEFSSERG [F15W], the protein stability index came out at 1.55. Turning to KPIVPTDGKRVIVVNHCEFSSERG [F15N], the protein stability index is 3.98.

For the variant KPIVPTDGKRVIVVVHCEFSSERG [F15V], the protein stability index was 2.84. With KPIVPTDGKRVIVVRHCEFSSERG [F15R], the protein stability index was 3.06. KPIVPTDGKRVIVVFHCDFSSERG [E18D]: the protein stability index came out at 1.79.

Take KPIVPTDGKRVIVVFHCNFSSERG [E18N]: the protein stability index came to 2.34. On to KPIVPTDGKRVIVVFHCHFSSERG [E18H], for which the protein stability index amounted to 3.13. To KPIVPTDGKRVIVVFHCSFSSERG [E18S] belongs 3.26.

KPIVPTDGKRVIVVFHCFFSSERG [E18F]: the protein stability index stood at 3.14.

For the variant KPIVPTDGKRVIVVFHCQFSSERG [E18Q], the protein stability index worked out at 3.42. For the variant KPIVPTDGKRVIVVFHCLFSSERG [E18L], the protein stability index was found to be 1.76. To KPIVPTDGKRVIVVFHCRFSSERG [E18R] belongs 2.48. As for KPIVPTDGKRVIVVFHCKFSSERG [E18K], the protein stability index turned out to be 4. As for KPIVPTDGKRVIVVFHCCFSSERG [E18C], the protein stability index came out at 2.17. Regarding KPIVPTDGKRVIVVFHCPFSSERG [E18P], the protein stability index worked out at 2.31.

For KPIVPTDGKRVIVVFHCIFSSERG [E18I], the protein stability index came to 2.28.

On to KPIVPTDGKRVIVVFHCMFSSERG [E18M], for which the protein stability index is 2.38. Next, KPIVPTDGKRVIVVFHCAFSSERG [E18A]: 2.51. Next, KPIVPTDGKRVIVVFHCGFSSERG [E18G]: 2.55.
